# Results: publication PMC2947474 (Molecular Biology of the Cell, 2010)
# B1: V5-tagged human Ang2 (natural protein)
# chain: MAAAAAAGPSPGSGPGDSPEGPEGEAPERRRKAHGMLKLYYGLSEGEAAGRPAGPDPLDPTDLNGAHFDPEVYLDKLRRECPLAQLMDSETDMVRQIRALDSDMQTLVYENYNKFISATDTIRKMKNDFRKMEDEMDRLATNMAVITDFSARISATLQDRHERITKLAGVHALLRKLQFLFELPSRLTKCVELGAYGQAVRYQGRAQAVLQQYQHLPSFRAIQDDCQVITARLAQQLRQRFREGGSGAPEQAECVELLLALGEPAEELCEEFLAHARGRLEKELRNLEAELGPSPPAPDVLEFTDHGGSGFVGGLCQVAAAYQELFAAQGPAGAEKLAAFARQLGSRYFALVERRLAQEQGGGDNSLLVRALDRFHRRLRAPGALLAAAGLADAATEIVERVARERLGHHLQGLRAAFLGCLTDVRQALAAPRVAGKEGPGLAELLANVASSILSHIKASLAAVHLFTAKEVSFSNKPYFRGEFCSQGVREGLIVGFVHSMCQTAQSFCDSPGEKGGATPPALLLLLSRLCLDYETATISYILTLTDEQFLVQDQFPVTPVSTLCAEARETARRLLTHYVKVQGLVISQMLRKSVETRDWLSTLEPRNVRAVMKRVVEDTTAIDVQVGLLYEEGVRKAQSSDSSKRTFSVYSSSRQQGRYAPSYTPSAPMDTNLLSNIQKLFSERIDVFSPVEFNKVSVLTGIIKISLKTLLECVRLRTFGRFGLQQVQVDCHFLQLYLWRFVADEELVHLLLDEVVASAALRCPDPVPMEPSVVEVICERG
# Legend:
# V5-tagged Vps54 = target: T1, V5-tagged Vps54 (human, UniProt Q9P1Q0 1-977); assay: sedimentation velocity on glycerol gradient + SEC
# T1 sequence: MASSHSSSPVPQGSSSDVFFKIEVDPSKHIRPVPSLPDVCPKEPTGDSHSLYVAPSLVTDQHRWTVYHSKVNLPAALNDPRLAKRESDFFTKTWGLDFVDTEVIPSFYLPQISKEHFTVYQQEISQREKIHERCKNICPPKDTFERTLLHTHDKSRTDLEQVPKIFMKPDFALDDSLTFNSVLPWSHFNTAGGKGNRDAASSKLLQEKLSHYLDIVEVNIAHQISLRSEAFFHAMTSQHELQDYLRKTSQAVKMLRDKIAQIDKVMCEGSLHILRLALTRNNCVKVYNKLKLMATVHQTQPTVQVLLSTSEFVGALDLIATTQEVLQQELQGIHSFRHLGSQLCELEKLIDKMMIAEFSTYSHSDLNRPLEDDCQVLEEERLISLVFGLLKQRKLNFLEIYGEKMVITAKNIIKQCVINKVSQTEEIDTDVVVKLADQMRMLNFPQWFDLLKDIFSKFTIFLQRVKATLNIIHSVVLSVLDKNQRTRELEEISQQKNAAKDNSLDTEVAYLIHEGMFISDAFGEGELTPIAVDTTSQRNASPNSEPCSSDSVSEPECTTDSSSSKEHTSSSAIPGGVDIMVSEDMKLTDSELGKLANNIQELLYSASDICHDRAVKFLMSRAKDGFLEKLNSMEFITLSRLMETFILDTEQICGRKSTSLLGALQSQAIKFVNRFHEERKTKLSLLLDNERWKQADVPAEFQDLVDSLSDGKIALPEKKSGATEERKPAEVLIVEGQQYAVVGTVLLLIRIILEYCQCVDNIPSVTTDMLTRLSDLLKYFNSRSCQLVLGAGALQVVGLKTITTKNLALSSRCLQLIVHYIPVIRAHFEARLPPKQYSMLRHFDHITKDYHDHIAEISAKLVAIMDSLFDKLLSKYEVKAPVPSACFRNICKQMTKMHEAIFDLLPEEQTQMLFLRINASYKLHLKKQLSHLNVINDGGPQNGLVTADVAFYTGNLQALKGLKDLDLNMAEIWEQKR
# V5-tagged Vps53 = target: T2, V5-tagged Vps53 (human, UniProt Q5VIR6 1-832); assay: sedimentation velocity on glycerol gradient + SEC
# T2 sequence: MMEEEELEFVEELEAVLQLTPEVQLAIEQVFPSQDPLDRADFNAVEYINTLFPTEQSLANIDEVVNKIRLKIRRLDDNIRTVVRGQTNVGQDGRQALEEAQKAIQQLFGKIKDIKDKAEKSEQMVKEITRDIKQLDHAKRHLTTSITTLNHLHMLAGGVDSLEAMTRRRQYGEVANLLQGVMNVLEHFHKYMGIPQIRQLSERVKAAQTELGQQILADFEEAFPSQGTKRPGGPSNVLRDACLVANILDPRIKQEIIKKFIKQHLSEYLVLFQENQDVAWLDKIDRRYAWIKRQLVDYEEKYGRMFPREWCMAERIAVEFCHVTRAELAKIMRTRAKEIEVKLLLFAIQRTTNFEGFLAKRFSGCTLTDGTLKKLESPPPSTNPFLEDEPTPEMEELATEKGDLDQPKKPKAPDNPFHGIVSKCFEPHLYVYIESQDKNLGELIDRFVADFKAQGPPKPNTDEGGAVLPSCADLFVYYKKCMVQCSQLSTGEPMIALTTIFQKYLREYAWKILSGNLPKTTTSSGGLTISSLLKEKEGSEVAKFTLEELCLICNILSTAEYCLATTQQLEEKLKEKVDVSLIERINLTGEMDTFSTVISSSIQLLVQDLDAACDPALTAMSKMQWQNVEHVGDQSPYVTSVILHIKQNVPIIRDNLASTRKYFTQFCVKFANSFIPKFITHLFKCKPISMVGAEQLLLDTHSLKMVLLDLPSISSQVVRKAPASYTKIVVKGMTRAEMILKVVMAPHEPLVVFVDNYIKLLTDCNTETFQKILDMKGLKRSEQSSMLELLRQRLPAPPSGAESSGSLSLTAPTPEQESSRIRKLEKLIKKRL
binder,measurement,setting,value
B1,stoichiometry N,V5-tagged Vps54,1
same,stoichiometry N,V5-tagged Vps53,1
